Assay: label from the status in PepcDB records
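Further: failed if final PepcDB status was selected cloned or expressed and not failed if soluble or beyond.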

For “MKNSENDYIQSLFQILPGLLTAFLVACLSKFLAIWLPSLGAATIAILLGIFLGNTFVRGANLNRGTKVAESKLLEFSVVLLGTTVTFQTIAQIGLQGVAFILIQMSLTIIFAYLIGKKLAFSDNMSLLMAGGNAVCGSSAIASIAPAIQADEEEKGQIITLVNLLGTVLMLTLPILSGILYGTNLLARSALIGGTLQSVGQVVASANMVNENAVQLAMLFKIMRIVLLVAVVYLFGRFKQSKTAESEAELVEVTKKSSALPWYVVGFFIACVFNSLIHFPVVISETAHFFSSWFEITALAAIGLRLDFKKFFQEGKRFLIYGLSVGTVQVVLAILLLALLQF”, the protein production was “failed”.

For “MKRFNVLKYIRTTKANIQTIAMPLTTKPLSLKINAALFDVDGTIIISQPAIAAFWRDFGKDKPYFDAEHVIHISHGWRTYDAIAKFAPDFADEEYVNKLEGEIPEKYGEHSIEVPGAVKLCNALNALPKEKWAVATSGTRDMAKKWFDILKIKRPEYFITANDVKQGKPHPEPYLKGRNGLGFPINEQDPSKSKVVVFEDAPAGIAAGKAAGCKIVGIATTFDLDFLKEKGCDIIVKNHESIRVGEYNAETDEVELIFDDYLYAKDDLLKW”, the protein production was “not failed”.

In the case of “MTGEWKECKLREIASEIKSGGTPSTKHQEYYGGIIPWLNTKEIHFNRIRDTDIKITEGGLNNSSAKWVKENSIIVAMYGATAGKIAINKIPLTTNQACCNITPDSEKADYNFVYYNLCHRYDELVNLSCGAAQQNLNVGLITNLDIILPPITEQCAIASVLSSLDDKIDLLHRQNKTLEAMAETLFRQWFVEEADEDWEEGFLPDEFDFTMGQSPPGTSYNQEGVGKPMFQGNADFGFRFPEERVYTTEPTRLAYPHDTLISVRAPVGAQNMAKVECCIGRGVSAFRYKANNDFYTYTYFKLRSLMDEIKKFNDEGTVFGSISKTDFLQMGIAIPPEDIIEKFEIHAKPLNDKVIENCIQIKLLEVMRDTLLPKLMSGEVRVEG”, the protein production is reported as “failed”.

In the case of “MESPTQTSEHIESMTEFLVKHYPDQLREISLSSDPKLHYPLFIEYAELVDDNPSLARQVFSDPEHYLRQFDDSAILAHKIALEHMKKFEEKIGIEKRFIHVRINTSGSPLERSPETFPSIGRVRVKHRGILMMLKGTVIRSGAVKMYEGEKMYRCRKCKHMFPIFPELESINSIVKPPFCPSQRSKACEGTNFDPVDDTVTRHDYQEIKIQENTQVLGVGVIPRSILVVLKDDLVDNVKAGDDVVVSGILTSKWSHDLKDVRCDLEPMLIANHVRRTNELKSEIDISDDLIEKFKNFWSHFRDTPLKGRNAILRGICPQVFGLFTVKLAVALTLIGGVQHVDASGTKVRGESHLLLIGDPGTGKSQFLKFAAKLSNRAVITTGLGSTSAGLTVTAVKDGGEWMLEAGALVLADGGLCCIDEFDSMREHDRATIHEAMEQQSISVAKAGLVTTLSTKTIVFGATNPKGQYDPDQYTKNPEWDAVVSSHILAEVQIEQDREVDDLTTIWPLPMLQRYIQFVKKNFRPVLSKEAEEIISSYYRLQRRSSTHNAARTTVRMLESLIRLAQGTSSVIVFINQNTPKTGTKERILMVLWCHAAHARLMFRNEVTRLDAITAILCIESSMTISAIVDSMGNALHSNFSEEPDQECILFRH”, the protein production is reported as “failed”.

With “MKVIGINGSPRRAGNTSIMLKTIFEVLEDEGIETELIQVGGTNIKGCRACYACIKNKNSECSTKGDGFNEIFAKMVEADGMILGSPTYFADITPELKALIDRAGFVSRTNGQLFRHKVGASVVSLRRGGGIHAYDSINHLFQICQMFMVGSTYWNLGFGGRDGGEVVNDTEGMENMRDLGHSMAFLLKKLHNLEHHHHHH” the protein production was “not failed”.

For “MPHSTTEPRRDMPDALISIVIPCRNEAANLPLLIDEIEAAMAGRHFELIIVNDGSTDETAAVLTEQAALRSFPVRELRHQKSAGQSLSVRSGAWAARGGIVATIDGDGQNDPQYIPVLVDALRQAGPDFGAAQGQRLKRRDSKVKQLASRFANWLRNAILHDETRDTGCGLKAVHTEILRKLPFFDGTHRFVPALVIQEGYRVVHCDVVDRSRRHGKSNYGIFDRGLQGALDLGGVWWLRRRRRRMPKVEEIKRV”, the protein production was “failed”.

With “MSEEEQGSGTTTGCGLPSIEQMLAANPGKTPISLLQEYGTRIGKTPVYDLLKAEGQAHQPNFTFRVTVGDTSCTGQGPS” the protein production was “failed”.

For “MDFAHLDQQLRDSVLDLKLSNEERDELRQLGSELGQDQVRYMRNRAFDLVRELALADSVNVLPALKWLEQVIKTLDANSAPVRDMASAHFSPGEDCRRKIRDLCRQARISVDICVFTISDDQLSDEIRACHQRGVAVRVISDSEKQFDVGSDIAALREAGVPVRIDDTPFHMHHKFAVFDGRTLLNGSFNWTRSATTGNEENLLVIDHPQLVASYLKEFNELWSRYAPR”, the protein production was “failed”.

For “MYMDHFPTFGGYIFSMATYYSLIPLTLLIALRAKWDYIMRHYWRSVARGFIIAILIALPVTSILQFKLTGDYLYVYSLTKTGVCITSSCLISRMKENEYYKFNVTGLQKYGIPNLGIMQAYRLVDKKFNKLKWRYDVVNAVVIIRSLFPLPITEVWSYEVDPKESHKIIGLRKFYVYYPYNPGTLLSRAYDFEFTMFLWGSGGGVA”, the protein production was “failed”.

With “MEMMQDSFQVHRIPQSKYVDGVRWLPQASALNRFFATASYDADCDSSSIEIQSLDPNPRGNHNTNPLIESLSSWTSPSRVSSLEVAGNGGGGGSFKPMVSAATSSGSLHVLMIDLVEGAAIEEFYAAEGERFHVGRVEGVDWREGGECVTVGEDGRVNVVKIVNGEGLRYRKVFDGNGLVAYRAVKWASPTEFVTGGYGFGLQLWDQRKSGEAVSQLKGNWFQGKTSAIVHSIDIHPSRKHTCIAGGSSGTVFAWDLRWPQQPIVLSGVGASENINNPLSESEVWEVQYDSYTKSNVSSSRILPVMTCSEDGILGIIEQGEEPIELLAEPCAINSFDIDRQNPQDVICSLEWESIAVFSRP” the protein production was “failed”.

With “MKSRPRLLLVYPATHKLGWVRRFQLPSLSLKQVAAVTPPEWEVVMADEVHEDVPFGEKFDLVGITAMTHQAVRAYEIADRFRAQGVPVVLGGIHPTVLPEEAQAHADAVLIGEAEPVWAKLLDDFLAGRLAPLYRAPIPTDDRLVIPWSRRDILAGRQYLTTQTVQASRGCPYDCPFCTVTPYFGRTFRYRNPDDVLAELRSFEGKLMVFVDDNILGDPVRAKPILEGMAGMNLRWGGQANLRFAEDPELVKLVARSGCIGIFVGIESVTGPHANHAKTGNGSSQIDLVKRVRDAGIVLEASMIFGFDDHDEGIFERTVRFLEECAPSIPTFNVLTPYPGTSLFKQFDREGRLLHKDWSRYDHGQVVFRPKQMTPERLYRGWQEARWEAYRLPAIASRVMKGKGKLVNLAYNFLRRGGIERPDRIVHIREVAEP” the protein production was “failed”.

In the case of “MYNTVVYSIVVPLYNEELVIDENYMRLKKIMDSLKENYEIMYVNDGSKDSTMNKVEKICEKDKRIKLVNFSRNFGHQCAISAGMELSAGDAIIVIDADLQDPPEVIPQMIDKWKDGYDVVYGKRLKRKGESFLKKFTAKIFYRLLRSITNIDIPVDTGDFRLIDRKVCDTLSSLPERNRYVRGLVSWVGFKQTFVEFTRQERFAGASKYPLKKMLKLAFDGITSFSYKPLVASTYLGGLMFLLGLLAFIYVTAKNLYSHKTILTLGLILAINLCMFGLIFIILGILGQYIGRISDESKARPNYIIASTINYKENIKEVEPSEVKLN”, the protein production is reported as “failed”.

For “FLCMIPMFLYDFSSDKVIALIARILYFSDYFIVILFLIFIINSTKYSPFVLENVKRFKVMGCCLLINTIIECINGYNLNTNNIRIFGTDSGGISPLMVISFIFALMCFVIAETFDKAIKIKEDNDLTI”, the protein production was “failed”.

For “MSTQFSDKFIQNLKPEAKKYYIRESRGFAIVVHPSGIKNPKGTKTFLYIYTINGKRKELKLGNYPEVTLKDARIKHGEAYARLVNGEDPVTPPVIKAEPQDENLTFGHFTELYLQWSKDNHSPKWHNTIKCALNKDALPVWEYTLIASIKRRDAIAFLENVARRGIQVINLHKATSSVFDYALEREYIESNPMAGLKAKTIPALKPKARERFLSDSEIKHVWKAIDEGPGYDETKRALKLIMVTAQRPGEVAAMHRREIQTGVGKPRCKICKRCGWWTIPAERMKNGEEHRIYLTPTALELIGDAEGYIFPSPQDGQPINRNSLSQLVSRERNNKKPNGEMYPPYYGLPEWTPHDLRRTARTLLARVGVPEEHAEEVLSHKKEGLVDRYNRHDYMEEKKEALIKLEAELMKLSI”, the protein production was “failed”.

With “MRRRWYNNGGFQTLRMLEESSSEVTSSSALGLPPAMVMSPESLASPEYGGLELWGYDDGITYSMAQSLGTCTMEQQQPQPQQQPQQTQPLPSMPLPMPPTTPKSENESMSSGREELSPASSVNGCSTDGEARRQKKGPAPRQQEELCLVCGDRASGYHYNALTCEGCKGFFRRSVTKNAVYICKFGHACEMDMYMRRKCQECRLKKCLAVGMRPECVVPENQCAMKRKEKKAQREKDKLPVSTTTVDDHMPPIMQCDPPPPEAARIHEVVPRFLNEKLMEQNRLKNVPPLTANQKSLIARLVWYQEGYEQPSEEDLKRVTQTWQSDEDDEDSDMPFRQITEMTILTVQLIVEFAKGLPGFAKISQSDQITLLKACSSEVMMLRVARRYDAATDSVLFANNQAYTRDNYRKAGMAYVIEDLLHFCRCMYSMMMDNVHYALLTAIVIFSDRPGLEQPLLVEEIQRYYLNTLRVYILNQNSASPRCAVIFGKILGILTEIRTLGMQNSNMCISLKLKNRKLPPFLEEIWDVADVATTATPVAAEAPAPLAPAPPARPPATV” the protein production was “not failed”.

In the case of “MTTRDRTAIFKRYREESVVAKRKRSGNDGIQTIGNQSLSGNHKELAPFLNKGSIQTDSHTVFLPPQWLDWYEELSNSVDSVTHQLAQLESLQQNHLLPGFEERSDEESQISELSRNITLLLQRSQERIRLLAPSSSEPNISSEEKLLRTNAQKYFASKLQELSLSFRRNQKEYLRKLQGQNALVEESTDENPLSTSLELEEYDPGFTQEQVMLLENSDQVASERQREIMKIASSINDLATIVKDIASLVIDQGTLLDRIDYNVEEIEVSTEGAVKELEKAKRSQKKG”, the protein production is reported as “failed”.

For “MNVDILKQRAKAFDYVFDAIVVTDLQGFIIDWNKGSETLYGYSKEQAIGQPVNMLHVPGDTEHITSEVISAVENQGKWTGEIRMLHKDGHIGWIESMCVPIYGENYQMVGALGINRDITKRKKELEHHHHHH”, the protein production was “not failed”.

In the case of “MSTYDTAVLDDTLVSCLSQLIGAEHIDTLTLEGRFEITRIAAALSGRPGPAPRAILMSGLQGSGKTTLARALEAAGFRRLCPDEEMFRRYGHYGRDFPRGEFRVREAPVLKDIALELQELLTAGHEVVVDHGFWTREERAQWAMTVMEAGGKPVLIYLPVPHEVRWDRIRKRNEQSLVDANSIEFSEEDLLRHAGRFSPPTDDEPHIVYDGQPDSVLADIQLSRHFDALEHHHHHH”, the protein production is reported as “failed”.

For “MSADIEHIRQIMREADCLYTEAEVDAAIARVGAQINAELADRNPVVFCVMNGGLIFSGKLLTHLNFPLEASYLHATRYRNETTGGDLFWKAKPEVSFIDRDVLIIDDILDEGHTLGAIIDFCKHAGARAVHTAVLIDKDHDRKARPDLKADYVGLPCIDRYIFGFGMDYKGYWRNAAGIYAVKG”, the protein production was “failed”.

In the case of “MIINITILEDNESDFITLSDSIKKWAANTGILINIIWLNSYKKFIKSLPTLKCDLFFSDIELNCNNSFTGIDACKQLRESGYTGIIIFLTAFKEYVFDGYDVQAFNYLLKPINYGTINNCLDKFIHLFSLEHHHHHH”, the protein production is reported as “not failed”.
